According to doi:10.1101/754457, “Architecture of the Mto1/2 microtubule nucleation complex” (bioRxiv, 2019):
Residue numbers refer to the chain shown, from its start. In names and notes the source's numbering stands.

B1: 6xHis-TEV-Mto1[bonsai] (Mto1 residues 131-549) (domain or fragment, S. pombe, UniProt O94488 131-549, looked up)
chain: TTDDEQLSPVLTANQGFQSQEQYEEDSYNNYDYTSDPSSPNYISSSLDQLPHLDDEDDLQLTPIKEERNYLHSQDAPTTNALSKKISDILIPASAMKDLKDRKNALAKEFEESQPGSSLTLKEQANVIDNLRKEVFGLKLKCYFLYDQLNKFHDQEVQDIMKQNIDLKTLTMELQRAVAGYEKKISGLESRIKPDQSFNLSTPSPAPSNLITLQSRYSQALSELETTKRAFAALRKEKSKKTNYSVGAYNEDRNVLSNMLDNERREKEALLQELESLRVQLSKKVPMPAKNTDERVIETLQRSNELLRMDISMQNEALLLRKQENDRLVKQVEELTVALNSGKMNAIVEAESSKNELWDSMMVSRMKTQEQSIELTRLYKQLQDIEEDYENKLMRMEQQWREDVDQLQEYVEEITQELQ
notes: Mto1, S. pombe CM1 protein, residues 131-549 of full-length Mto1 (1115 residues); a TEV site lies between the 6xHis tag and Mto1; Dimeric by SEC-MALS; No TEV cleavage is described; also called 6xHis-tagged Mto1[bonsai]; source: Sf9 (MultiBac baculovirus), purified (nickel chelate, Superose 6 SEC); expressed alone or co-expressed with untagged Mto2; not shown: His6, N-terminal, kept
B2: Mto2 Near-N-terminal Domain (NND; Mto2 residues 78-153) (domain or fragment, S. pombe, UniProt Q9USP7 78-153, looked up)
chain: PLYSPSWPSLADANVNSMKSNNAIQEHKAAKFVSEKSLEKVSTADNNLVLQELENLRERLNQVELQLSERPSSYLG
notes: Mto2, S. pombe, residues 78-153 (NND); Weak homodimer that dissociates upon dilution; also called wild-type NND; source: E. coli BL21(DE3) pRIL, purified (glutathione-sepharose, TEV cleavage, SEC); not shown: GST, N-terminal, cleaved
B3: NND-N123C (domain or fragment, S. pombe, UniProt Q9USP7 78-153, looked up)
chain: B2 chain with N46C
notes: Mto2, S. pombe, residues 78-153 (NND) with N123C; Disulfide-linked dimer under non-reducing conditions; source: E. coli BL21(DE3) pRIL, purified (glutathione-sepharose, TEV cleavage, SEC); not shown: GST, N-terminal, cleaved
B4: NND-R147C (domain or fragment, S. pombe, UniProt Q9USP7 78-153, looked up)
chain: B2 chain with R70C
notes: Mto2, S. pombe, residues 78-153 (NND) with R147C; Disulfide-linked dimer under non-reducing conditions; source: E. coli BL21(DE3) pRIL, purified (glutathione-sepharose, TEV cleavage, SEC); not shown: GST, N-terminal, cleaved
B5: 6xHis-tagged Mto2 (natural protein, S. pombe, UniProt Q9USP7 1-397, looked up)
chain: MSEHNYQSDREVAEDPFLNYEASANQLSSNSRESTPRGSPWRAGMRSASLMTEPLEDSMYSDNNYLDNGVSFTKDENPLYSPSWPSLADANVNSMKSNNAIQEHKAAKFVSEKSLEKVSTADNNLVLQELENLRERLNQVELQLSERPSSYLGYHNNLSPYRSPNSYPSLLPSTHSPHSPAPLSTMQTALMRLRTYHPSPIILKPVEQAVNHAITLVNTSPSSVVDALCRSLAELCLGLVQEAIDASILSQQESSNSLDLVRHTPPLNYTSSVDSSPQRMASDSYGRPSLHLNDPFPSVDLQSNELSHHNVRTTLFSDDSRFHSKIHTHSTPPSQMYSAASHFRYRSDPSTRHVSNSTNKSSLHPSPTSLRVAHPIIPQRASPASQSFPSLQDTPSP
notes: Forms a range of multimers; Construct described in Leong et al., 2019; also called wild-type Mto2; 6xHis-Mto2; source: Sf9 (MultiBac baculovirus), purified (nickel chelate, Superose 6 SEC); also Sf9 co-infected with GST-Mto1[bonsai] virus, in lysate
B6: Mto2, untagged, co-expressed with 6xHis-Mto1[bonsai] (natural protein, S. pombe, UniProt Q9USP7 1-397, looked up)
chain: B5 chain
notes: Mto2, S. pombe; for coexpression the tag was present only on Mto1[bonsai]; Construct described in Leong et al., 2019; also called Mto2 (of the Mto1/2[bonsai] complex); source: Sf9 (MultiBac baculovirus), co-expressed and co-purified with 6xHis-Mto1[bonsai]
B7: Mto1/2[bonsai] complex (complex, S. pombe)
chain 1: B1 chain
chain 2: B5 chain
notes: Mto1, S. pombe, residues 131-549 of full-length Mto1 (Mto1[bonsai]); Mto2, S. pombe, untagged in the co-expression; Near-equal stoichiometry of the two chains; a range of multimer sizes, so no copy numbers; also called 6xHis-tagged Mto1/2[bonsai]; recombinant Mto1/2[bonsai]; source: Sf9 (MultiBac baculovirus), co-expressed, purified (nickel chelate, Superose 6 SEC); not shown: His6, N-terminal, …
B8: Mto2 Twin-Cysteine Domain (TCD; Mto2 residues 180-265) (domain or fragment, S. pombe, UniProt Q9USP7 180-265, looked up)
chain: PAPLSTMQTALMRLRTYHPSPIILKPVEQAVNHAITLVNTSPSSVVDALCRSLAELCLGLVQEAIDASILSQQESSNSLDLVRHTP
notes: Mto2, S. pombe, residues 180-265 (TCD); Residues 180-250 (chain A) and 180-248 (chain B) are built in the structure; source: E. coli BL21(DE3) pRIL, purified (glutathione-sepharose, TEV cleavage, SEC); selenomethionine-labelled protein from B834(DE3); not shown: GST, N-terminal, cleaved

What was measured:
[1] = target: the molecule itself; assay: SEC-MALS; Superose 6 10/300 for full-length proteins and complexes; injected at ∼4.5 mg/mL (Mto1/2[bonsai]), ∼1.3 mg/mL (Mto1[bonsai]), ∼1.6 mg/mL (Mto2), 1.4 mg/mL (Mto2-134A136A), 1.3 mg/mL (Mto2-134AAA)
[2] = target: the molecule itself; assay: ITC; dilution series, 25°C, iTC200; 100 µM NND injected (20 x 2 µL) into 50 mM Tris-HCl pH 8.0, 150 mM NaCl, 2 mM EDTA; dimer dissociation model; dimer to monomers
[3] = target: the molecule itself; assay: SEC-MALS; Superdex 75 10/300 for protein fragments; NND injected at ∼5 mg/mL (600 µM) and a dilution series, TCD at ∼10 mg/mL (1000 µM) and a dilution series
[4] = target: the molecule itself; assay: cross-linking; intermolecular disulfide between engineered cysteines; SDS-PAGE with and without β-mercaptoethanol
[5] = target: the molecule itself; assay: SEC; SEC-dilution analysis, Superose 6 10/300, 4°C, 100 µL loaded; undiluted ∼9 mg/mL (co-purified Mto1/2[bonsai]), ∼1.5 mg/mL (Mto1[bonsai]), ∼2.5 mg/mL (Mto2), and 10X dilution; fractions by SDS-PAGE and western blot
[6] = target: the molecule itself; assay: cross-linking; EDC/Sulfo-NHS zero-length cross-linking with mass spectrometry (CLMS) of co-purified Mto1/2[bonsai] complex; phosphate pH 7.5, 300 mM NaCl, 5% glycerol, 2 h at 18°C
[7] = target: B1; assay: SEC; SEC-dilution analysis, Superose 6 10/300, 4°C, 100 µL loaded; undiluted ∼9 mg/mL (co-purified Mto1/2[bonsai]), ∼1.5 mg/mL (Mto1[bonsai]), ∼2.5 mg/mL (Mto2), and 10X dilution; fractions by SDS-PAGE and western blot; details: both partners purified

B1
stoichiometry N [1]: 2

B2
Kd [2]: 15 µM | stoichiometry N [3]: 2

B3
binding result [4]: binds

B4
binding result [4]: binds

B5
binding result [5]: binds

B6
binding result [6]: binds | stoichiometry N [7]: ~1

B7
binding result [1]: binds

B8
stoichiometry N [3]: 2
